Reference: US11957762B2, “Immune tolerant and non-immune tolerant elastin-like recombinant peptides and methods of use” (University of Utah Research Foundation, priority 2015, dated 2024)
Where “and” joins values, the source holds several entries; their conditions need not be identical. Equal values may be shown once.

B1: G(…)21GG (protein)
chain: GVPGLGAGAGVPGLGAGAGVPGLGAGAGVPGLGAGAGVPGLGAGAGVPGLGAGAGVPGLGAGAGVPGLGAGAGVPGLGAGAGVPGLGAGAGVPGLGAGAGVPGLGAGAGVPGLGAGAGVPGLGAGAGVPGLGAGAGVPGLGAGAGVPGLGAGAGVPGLGAGAGVPGLGAGAGVPGLGAGAGVPGLGAGAGVPGLGAGAGVPGLGAGAGVPGLGAGAGVPGLGAGAGVPGLGAGAGVPGLGAGAGVPGLGAGAGVPGLGAGAGVPGLGAGAGVPGLGAGAGVPGLGAGAGVPGLGAGAGVPGLGAGAGVPGLGAGAGVPGLGAGAGVPGLGAGAGVPGLGAGAGVPGLGAGAGVPGLGAGAGVPGLGAGAGVPGLGAGAGVPGLGAGAGVPGLGAGAGVPGLGAGAGVPGLGAGAGVPGLGAGAGVPGLGAGAGVPGLGAGAGVPGLGAGAGVPGLGAGAGVPGLGAGAGVPGLGAGAGVPGLGAGAGVPGLGAGAGVPGLGAGAGVPGLGAGAGVPGLGAGAGVPGLGAGAGVPGLGAGAGVPGLGAGAGVPGLGAGAGVPGLGAGAGVPGLGAGAGVPGLGAGAGVPGLGAGAGVPGLGAGAGVPGLGAGAGVPGLGAGAGVPGLGAGAGVPGLGAGAGVPGLGAGAGVPGLGAGAGVPGLGAGAGVPGLGAGAGVPGLGAGAGVPGLGAGAGVPGLGAGAGVPGLGAGAGVPGLGAGAGVPGLGAGAGVPGLGAGAGVPGLGAGAGVPGLGAGAGVPGLGAGAGVPGLGAGAGVPGLGAGAGVPGLGAGAGVPGLGAGAGVPGLGAGAGVPGLGAGAGVPGLGAGAGVPGLGAGAGVPGLGAGAGVPGLGAGAGVPGLGAGAGGG

How the values were obtained:
[1] = test system: regular 4T1-luc cells; assay: Cytotoxicity, regular 4T1-luc cells; assay type: cell-based, murine; details: Mus musculus; regular 4T1-luc cells, 72 hours; read-out: IC50
Method: Cytotoxicity studies. The cytotoxicity was measured as previously described (Zhao, et al; Mol. Pharm, 2014; 11(8):2703-12). The incubation time was 72 hours. 4T1-lu mammosphere cells were generated as the previously described (Zhao, et al; Mol. Pharm, 2014; 11(8):2703-12).

[2] = Thermally-induced reversible phase transition (turbidity OD350 vs temperature); assay type: physicochemical
From the text: Characterization of thermally-induced, reversible, inverse phase transition of iTEPs and the iTEPB-iTEPA-pOVA fusion. The phase transitions of iTEP or iTEP fusions were characterized by turbidity changes of sample solutions as a function of temperature. Specifically, the optical density at 350 nm (OD350) of a sample solution was monitored using an UV-visible spectrophotometer equipped with a multi-cell thermoelectric temperature controller (Cary 300, Varian Instruments, Walnut Creek, CA) while the solution was heated from 20° C. to 80° C. and then cooled to 20° C. at a rate of 1° C./min. The maximum first derivative of the turbidity curve of a sample was identified. The transition temperature (Tt) of the sample is the temperature that corresponds to the maximum derivative.

[3] = test system: C57BL/6 mice; assay: Humoral immunogenicity: IgG titers by ELISA in sera of immunized mice; details: mouse, in vivo
Method: Immunization of iTEPs and collection of immune sera. C57BL/6 mice were immunized twice at their right hocks with iTEPs at a dose of 100 μg/mouse. […] At 1 week after the second immunization, 100 μL blood was collected from each immunized mouse. The blood samples were allowed to sit for 30 minutes to one hour at room temperature to clot. Sera were collected from the blood samples after the samples were spun for 10 min at 14,000 rpm at 4° C. The sera were kept at −80° C. before an analysis of the titers of iTEP-specific IgG.
Determination of IgG titers by ELISA. […] Plates were read at OD 450 nm (minus 570 nm for wavelength correction).
The end point titer of a serum IgG was defined as the reciprocal of the higher serum dilution which OD value from the ELISA assay is higher than a statistically valid cutoff. The titer results were expressed as IgG titers (Log 10) for each sample. […] The value of the cutoff was calculated using the following equation:^(31) Cutoff=X+SD t√{square root over (1+(1/n))} where X is the mean absorbance readings of independent PBS control sera, SD is the standard deviation of the readings, n is the number of independent PBS controls (mouse samples), t is the (1−α)th percentile of the one-tailed t-distribution with v=n−1 degrees of freedom.

Row | Molecule | IC50 [1] | Relative Hydrophobicity [2] | (heating) Tt ([2]; 5 μM) | Tt (cooling) ([2]; 25 μM in H2O) | Tt (heating) ([2]; 25 μM in H2O) | humoral immunogenicity [3]
1 | CC(=O)O[C@H]1C(=O)[C@@]2(C)[C@H]([C@H](OC(=O)c3ccccc3)[C@]3(O)C[C@H](OC(=O)[C@H](O)[C@@H](NC(=O)c4ccccc4)c4ccccc4)C(C)=C1C3(C)C)[C@]1(OC(C)=O)CO[C@@H]1C[C@@H]2O [PTX, paclitaxel, reference compound] | 6.3 nM |  |  |  |  | 
2 | B1 |  | High | 50.5 °C | 34.00 ± 0.58 °C | 35.7 °C and 35.70 ± 0.58 °C | did not show different immunogenicity
